B1: LINE1-mini (parent)
chain: GGCAGAGCUCAACACAGCGUGGCAAAGUGGCUGUGGCUAGACUGCC

The variants in the data set derive from B1. The data set can be described thus: self-cleavage, relative activity (ratio to wild type); higher = more cleavage; in vitro, sequencing; the parent is a self-cleaving ribozyme.
With G5C G22C, the self-cleavage was 0.13. The value for G5C G22U was 0.04.

Turning to G5C G22A, the self-cleavage was 0.08. For the variant A4U A6U, the self-cleavage stood at 0.13. Turning to A4U C10A, the self-cleavage is 0.04. The value for A4U C10G was 0.06; that for A4U C10U was 0.19.

Regarding G5C A41U, the self-cleavage stood at 0.09. The value for G5C A41C was 0.04; that for G5C A41G was 0.07; that for G5C G27C was 0.06. The value for G5C G27A was 0.05; that for G5C G27U was 0.09. Take G5C G7A: the self-cleavage was 0.22. The value for G5C G7C was 0.08. The value for G5C G7U was 0.25. G5A G44C: the self-cleavage came to 0.06.

For G5A G44U, the self-cleavage is 0.07. The value for G5A G44A was 0.1; that for G5C G29U was 0.12; that for G5C G29C was 0.05.

Consider G5C G29A, for which the self-cleavage was found to be 0.05.

As to A4U G40U, the self-cleavage came to 0.14. The value for A4U G40C was 0.07; that for A4U G40A was 0.17; that for G5A G21A was 0.25. The value for G5A G21C was 0.13; that for G5A G21U was 0.14. The value for G5A G29C was 0.07; that for G5A G29U was 0.13. Turning to G5A G29A, the self-cleavage came out at 0.1.

Take G5A G19A: the self-cleavage came to 0.29. The value for G5A G19C was 0.06; that for G5A G19U was 0.11. The value for G5A A25C was 0.07; that for G5A A25U was 0.12; that for G5A A25G was 0.14. Take G5A G35A: the self-cleavage was 0.1. The value for G5A G35U was 0.26. The value for G5A G35C was 0.08. For the variant G5A C23U, the self-cleavage was found to be 0.14.

Turning to G5A C23A, the self-cleavage turned out to be 0.14. The value for G5A C23G was 0.29. The value for G5A U38G was 0.02; that for G5A U38C was 0.09. The value for G5A U38A was 0.16. Take A4U G44A: the self-cleavage came out at 0.17. The value for A4U G44C was 0.12.

In the case of A4U G44U, the self-cleavage amounted to 0.25.

As for G5C C8G, the self-cleavage is 0.07. With G5C C8A, the self-cleavage amounted to 0.18.

As for G5C C8U, the self-cleavage was 0.11. The value for G5A U34G was 0.04. The value for G5A U34C was 0.08; that for G5A U34A was 0.07; that for A4U A11U was 0.04. The value for A4U A11C was 0.04; that for A4U A11G was 0.04; that for G5A C42G was 0.07. Consider G5A C42A, for which the self-cleavage was found to be 0.13.

As to G5A C42U, the self-cleavage was 1.53. The value for A4U G7C was 0.18; that for A4U G7U was 0.2; that for A4U G7A was 0.31. In the case of G5A G40U, the self-cleavage stood at 0.1. The value for G5A G40C was 0.04; that for G5A G40A was 0.11. As to A4U A12C, the self-cleavage turned out to be 0.03. The value for A4U A12U was 0.12. The value for A4U A12G was 0.05; that for G5A A12C was 0.04; that for G5A A12U was 0.09. The value for G5A A12G was 0.08.

For G5C C37U, the self-cleavage turned out to be 0.09.

With G5C C37A, the self-cleavage was determined as 0.05. The value for G5C C37G was 0.05; that for G5A C46U was 0.12. The value for G5A C46G was 0.16.

Take G5A C46A: the self-cleavage was determined as 0.11. G5C G21U: the self-cleavage was found to be 0.09. The value for G5C G21C was 0.04; that for G5C G21A was 0.1. With A4U U20C, the self-cleavage was 0.13. In the case of A4U U20A, the self-cleavage amounted to 0.12. The value for A4U U20G was 0.09; that for G5A U28A was 0.12; that for G5A U28C was 0.14. The value for G5A U28G was 0.2; that for G5A G30U was 0.19; that for G5A G30A was 0.22. The value for G5A G30C was 0.12; that for A4U G30A was 0.42; that for A4U G30U was 0.22. As to A4U G30C, the self-cleavage turned out to be 0.21. Regarding A4U G36U, the self-cleavage was 0.08. The value for A4U G36C was 0.07. The value for A4U G36A was 0.12; that for A4U C13G was 0.1.

With A4U C13A, the self-cleavage is 0.12. As to A4U C13U, the self-cleavage turned out to be 0.14.

Turning to G5A C31U, the self-cleavage came out at 0.06. The value for G5A C31A was 0.08.

For the variant G5A C31G, the self-cleavage was found to be 0.05. The value for G5A G33A was 0.1; that for G5A G33U was 0.05; that for G5A G33C was 0.09.

Regarding A4U U34C, the self-cleavage stood at 0.08. The value for A4U U34G was 0.06; that for A4U U34A was 0.08. On to G5A U43G, for which the self-cleavage was 0.86. The value for G5A U43A was 0.05.

With G5A U43C, the self-cleavage turned out to be 0.07. The value for A4U G5A was 0.1. Turning to A4U G5U, the self-cleavage is 0.12. The value for A4U G5C was 0.45. The value for G5C C15G was 0.03; that for G5C C15A was 0.05; that for G5C C15U was 0.08. The value for A4U G19A was 0.68; that for A4U G19C was 0.05; that for A4U G19U was 0.15. A4U A16C: the self-cleavage amounted to 0.19. The value for A4U A16U was 0.15; that for A4U A16G was 0.12. The value for G5A A14G was 0.13; that for G5A A14C was 0.09; that for G5A A14U was 0.1. The value for G5C C31A was 0.08; that for G5C C31U was 0.05. In the case of G5C C31G, the self-cleavage is 0.06. Turning to G5A C13U, the self-cleavage was determined as 0.15. As for G5A C13A, the self-cleavage is 0.15. The value for G5A C13G was 0.08; that for G5A G7C was 0.23; that for G5A G7A was 0.35. For G5A G7U, the self-cleavage came to 0.26.

On to G5A U20A, for which the self-cleavage worked out at 0.13. The value for G5A U20G was 0.13; that for G5A U20C was 0.06. The value for A4U C31G was 0.05; that for A4U C31U was 0.1; that for A4U C31A was 0.05. The value for A4U A26C was 0.14; that for A4U A26U was 0.2. Turning to A4U A26G, the self-cleavage amounted to 0.14.

Regarding G5A C45A, the self-cleavage was 0.22. The value for G5A C45G was 0.14; that for G5A C45U was 0.12; that for G5A A39G was 0.08. Consider G5A A39C, for which the self-cleavage turned out to be 0.24. The value for G5A A39U was 0.1; that for G5C was 0.07. On to G5A, for which the self-cleavage was 0.16. The value for G5C C45G was 0.05.

Regarding G5C C45U, the self-cleavage was 0.06.

As for G5C C45A, the self-cleavage was 0.05. The value for G5C C46A was 0.09. The value for G5C C46U was 0.06; that for G5C C46G was 0.11. Turning to G5A U32C, the self-cleavage was determined as 0.07.

Take G5A U32G: the self-cleavage came to 0.04. The value for G5A U32A was 0.06; that for G5C C13U was 0.05; that for G5C C13A was 0.09. The value for G5C C13G was 0.13; that for A4U U43A was 0.67; that for A4U U43G was 0.06.

The values above are taken from the RNAGym collection of RNA variant scans (doi:10.7554/elife.90254).
